Results reported in the supplement of paper PMC10567573.

B1: CASP6 (parent)
chain: TCADRDNLTRRFSDLGFEVKCFND

Variants of: B1
Experiment: protein stability index of a GFP-peptide fusion (GPS, HEK-293T) (PSI 1-6); higher = more stable
Settings: c terminus: a fixed tail appended
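Note: lentivirally expressed fusions sorted by FACS into six bins by GFP to DsRed ratio, PSI derived from sequencing read proportions per bin multiplied by bin number.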

Variant	protein stability index
TCADRDSLTRRFSDLGFEVKCFND [N7S]	3.51
TCADRDGLTRRFSDLGFEVKCFND [N7G]	3.71
TCADRDFLTRRFSDLGFEVKCFND [N7F]	2.78
TCADRDTLTRRFSDLGFEVKCFND [N7T]	3.52
TCADRDELTRRFSDLGFEVKCFND [N7E]	3.55
TCADRDRLTRRFSDLGFEVKCFND [N7R]	2.98
TCADRDHLTRRFSDLGFEVKCFND [N7H]	3.63
TCADRDCLTRRFSDLGFEVKCFND [N7C]	3.13
TCADRDKLTRRFSDLGFEVKCFND [N7K]	3.06
TCADRDILTRRFSDLGFEVKCFND [N7I]	3.22
TCADRDLLTRRFSDLGFEVKCFND [N7L]	2.98
TCADRDQLTRRFSDLGFEVKCFND [N7Q]	2.92
TCADRDALTRRFSDLGFEVKCFND [N7A]	2.89
TCADRDDLTRRFSDLGFEVKCFND [N7D]	3.41
TCADRDMLTRRFSDLGFEVKCFND [N7M]	3.35
TCADRDPLTRRFSDLGFEVKCFND [N7P]	3.4
TCADRDWLTRRFSDLGFEVKCFND [N7W]	2.52
TCADRDYLTRRFSDLGFEVKCFND [N7Y]	2.72
TCADRDNFTRRFSDLGFEVKCFND [L8F]	2.45
TCADRDNDTRRFSDLGFEVKCFND [L8D]	4.06
TCADRDNKTRRFSDLGFEVKCFND [L8K]	3.6
TCADRDNYTRRFSDLGFEVKCFND [L8Y]	2.91
TCADRDNGTRRFSDLGFEVKCFND [L8G]	3.66
TCADRDNNTRRFSDLGFEVKCFND [L8N]	2.38

Variant	protein stability index
TCADRDNMTRRFSDLGFEVKCFND [L8M]	3.03
TCADRDNVTRRFSDLGFEVKCFND [L8V]	3.37
TCADRDNITRRFSDLGFEVKCFND [L8I]	3.31
TCADRDNQTRRFSDLGFEVKCFND [L8Q]	4.08
TCADRDNCTRRFSDLGFEVKCFND [L8C]	2.99
TCADRDNWTRRFSDLGFEVKCFND [L8W]	2.79
TCADRDNSTRRFSDLGFEVKCFND [L8S]	3.82
TCADRDNRTRRFSDLGFEVKCFND [L8R]	4.07
TCADRDNTTRRFSDLGFEVKCFND [L8T]	3.49
TCADRDNHTRRFSDLGFEVKCFND [L8H]	3.28
TCADRDNPTRRFSDLGFEVKCFND [L8P]	3.52
TCADRDNATRRFSDLGFEVKCFND [L8A]	3.38
TCADRDNETRRFSDLGFEVKCFND [L8E]	4.42
TCAKRDNLTRRFSDLGFEVKCFND [D4K]	3.37
TCAWRDNLTRRFSDLGFEVKCFND [D4W]	3.54
TCAGRDNLTRRFSDLGFEVKCFND [D4G]	3.28
TCAIRDNLTRRFSDLGFEVKCFND [D4I]	2.24
TCAHRDNLTRRFSDLGFEVKCFND [D4H]	2.96
TCARRDNLTRRFSDLGFEVKCFND [D4R]	2.95
TCASRDNLTRRFSDLGFEVKCFND [D4S]	3.02
TCAARDNLTRRFSDLGFEVKCFND [D4A]	2.61
TCAERDNLTRRFSDLGFEVKCFND [D4E]	3.74
TCAPRDNLTRRFSDLGFEVKCFND [D4P]	2.75
TCACRDNLTRRFSDLGFEVKCFND [D4C]	1.58

Variant	protein stability index
TCAVRDNLTRRFSDLGFEVKCFND [D4V]	3.05
TCAQRDNLTRRFSDLGFEVKCFND [D4Q]	3.36
TCANRDNLTRRFSDLGFEVKCFND [D4N]	3.17
TCAYRDNLTRRFSDLGFEVKCFND [D4Y]	2.44
TCAFRDNLTRRFSDLGFEVKCFND [D4F]	2.78
TCATRDNLTRRFSDLGFEVKCFND [D4T]	2.64
TCAMRDNLTRRFSDLGFEVKCFND [D4M]	2.08
TCALRDNLTRRFSDLGFEVKCFND [D4L]	2.21
TCADRLNLTRRFSDLGFEVKCFND [D6L]	3.06
TCADRTNLTRRFSDLGFEVKCFND [D6T]	3.2
TCADRGNLTRRFSDLGFEVKCFND [D6G]	3.47
TCADRWNLTRRFSDLGFEVKCFND [D6W]	2.09
TCADRPNLTRRFSDLGFEVKCFND [D6P]	3.68
TCADRVNLTRRFSDLGFEVKCFND [D6V]	2.38
TCADRENLTRRFSDLGFEVKCFND [D6E]	3.56
TCADRCNLTRRFSDLGFEVKCFND [D6C]	2.43
TCADRANLTRRFSDLGFEVKCFND [D6A]	2.76
TCADRQNLTRRFSDLGFEVKCFND [D6Q]	3.44
TCADRNNLTRRFSDLGFEVKCFND [D6N]	2.29
TCADRYNLTRRFSDLGFEVKCFND [D6Y]	2.44
TCADRRNLTRRFSDLGFEVKCFND [D6R]	3.16
TCADRFNLTRRFSDLGFEVKCFND [D6F]	2.51
TCADRINLTRRFSDLGFEVKCFND [D6I]	2.96
TCADRSNLTRRFSDLGFEVKCFND [D6S]	3.01

Variant	protein stability index
TCADRMNLTRRFSDLGFEVKCFND [D6M]	3.09
TCADRHNLTRRFSDLGFEVKCFND [D6H]	3.08
TCADRKNLTRRFSDLGFEVKCFND [D6K]	2.75
TAADRDNLTRRFSDLGFEVKCFND [C2A]	4.04
TEADRDNLTRRFSDLGFEVKCFND [C2E]	4.84
TYADRDNLTRRFSDLGFEVKCFND [C2Y]	3.23
TRADRDNLTRRFSDLGFEVKCFND [C2R]	3.74
TSADRDNLTRRFSDLGFEVKCFND [C2S]	3.88
TVADRDNLTRRFSDLGFEVKCFND [C2V]	3.93
TWADRDNLTRRFSDLGFEVKCFND [C2W]	2.36
TKADRDNLTRRFSDLGFEVKCFND [C2K]	3.51
TTADRDNLTRRFSDLGFEVKCFND [C2T]	3.54
TGADRDNLTRRFSDLGFEVKCFND [C2G]	3.47
TMADRDNLTRRFSDLGFEVKCFND [C2M]	3.38
TQADRDNLTRRFSDLGFEVKCFND [C2Q]	3.43
TPADRDNLTRRFSDLGFEVKCFND [C2P]	4.04
TNADRDNLTRRFSDLGFEVKCFND [C2N]	4.32
TDADRDNLTRRFSDLGFEVKCFND [C2D]	3.81
TLADRDNLTRRFSDLGFEVKCFND [C2L]	3.25
THADRDNLTRRFSDLGFEVKCFND [C2H]	3.71
TFADRDNLTRRFSDLGFEVKCFND [C2F]	3.16
TIADRDNLTRRFSDLGFEVKCFND [C2I]	3.35
